Patent US20160137713A1 (HANALL BIOPHARMA, published 2016)

Key:
[1] = target: T1, human FcRn on HEK293 cells (human, UniProt P55899 24-365; P61769 21-119); test: FACS on hFcRn-overexpressing HEK293 cells at pH 7.4, Alexa488 anti-human goat antibody; MFI relative to hIgG1
T1 construct: whole, on cells; also called hFcRn
Protocol: (§1) In stable HEK293 cells expressing human FcRn, the degrees of binding of antibody to FcRn at various pHs were analyzed using a FACS system. Specifically, 100,000 stable HEK293 cells were washed with PBS and centrifuged in a table top microcentrifuge at 4500 rpm for 5 minutes to obtain pellets. 1 μg of antibody was added to 100 μl of pH 6.0 or pH 7.4PBS/10 mM EDTA. The cell pellets were resuspended in 100 μl of the antibody solution and incubated on ice for 60 minutes. The cells were washed once with 150 μl of buffer having pH difference, and then pellets were obtained therefrom. Alexa488-labeled anti-human antibody goat antibody (1 mg/ml) was diluted at 1:20 in buffer having pH difference, and the pellets were resuspended in 100 μl of the buffer, and then cultured on ice for 60 minutes. The cells were washed once with 150 μl of buffer having pH difference, and pellets were obtained therefrom and resuspended in buffer having pH difference. The suspension was transferred into a tube for FACS analysis. These cells were analyzed by FACS using BD FACSDiva™ v6.1.3 software (BD Bioscience). The results of the analysis were expressed as Mean Fluorescence Intensity (MFI) (see FIG. 2).

[2] = target: T1, human FcRn on HEK293 cells; test: FACS competition on hFcRn HEK293 cells at pH 6.0; remaining binding of 100 nM Alexa488-labeled hIgG1 (m14) with 250 nM competitor antibody, percent of the tube without competitor
Protocol: (§2) In stable HEK293 cells expressing human FcRn, the blocking of the antibody against FcRn was analyzed by FACS. The antibody was diluted in binding buffer (PBS pH 6.0, 10 mM EDTA) at concentrations of 2,000 nM, […] to make 50 μl of dilutions, which were dispensed into tubes. […] Stable HEK293 cells were diluted in binding buffer at a concentration of 2,500,000 cells/ml, and 40 μl of the cell dilution was added to each of the labeled antibody-containing tubes. Thus, a final volume of 100 μl contained 100,000 cells, 100 nM labeled antibody and 1000 nM, 500 nM or 250 nM competitor antibody. The cells were washed once with 150 μl of buffer (pH 6.0), and pellets were obtained therefrom and resuspended in 150 μl of buffer having pH difference. The suspension was transferred into a tube for FACS analysis. The cells were analyzed by FACS using BD FACSDiva™ v6.1.3 software (BD Bioscience). The results of the analysis were expressed as mean fluorescence intensity (MFI).
(§3) The MFI of the test group was processed after subtracting the MFI (background signal) measured in cells alone.

[3] = target: T1, human FcRn on HEK293 cells; test: FACS competition on hFcRn HEK293 cells at pH 6.0; remaining binding of 100 nM Alexa488-labeled hIgG1 (m14) with 1000 nM competitor antibody, percent of the tube without competitor
Protocol: as §2, §3

rat FcRn on Rat-2 cells = target: T2, rat FcRn on Rat-2 cells (rat, UniProt P13599 23-366; P07151 21-119); test: FACS on rat FcRn-expressing Rat-2 cells at pH 6.0 and pH 7.4, FITC anti-human IgG goat antibody; MFI relative to hIgG
T2 construct: whole, on cells
T2 sequence (looked up): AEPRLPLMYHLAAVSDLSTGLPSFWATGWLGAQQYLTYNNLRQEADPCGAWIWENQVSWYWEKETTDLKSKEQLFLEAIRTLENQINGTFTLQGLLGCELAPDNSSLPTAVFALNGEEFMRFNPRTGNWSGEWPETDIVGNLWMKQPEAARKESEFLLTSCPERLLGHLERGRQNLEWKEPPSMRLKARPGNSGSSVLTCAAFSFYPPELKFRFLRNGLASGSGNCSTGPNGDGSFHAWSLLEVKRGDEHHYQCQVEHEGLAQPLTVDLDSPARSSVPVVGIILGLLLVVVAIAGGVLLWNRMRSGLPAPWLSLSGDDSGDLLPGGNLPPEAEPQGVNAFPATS
T2 sequence (b2m, looked up): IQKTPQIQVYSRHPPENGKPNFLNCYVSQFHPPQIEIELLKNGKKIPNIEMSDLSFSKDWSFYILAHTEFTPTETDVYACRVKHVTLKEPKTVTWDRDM
Protocol: Rat-2 (KCTC #AC28203), rat fibroblasts stably expressing rat FcRn, were cultured in 10% FBS DMEM medium, and then detached from the culture plate by trypsin treatment. The cells were washed three times with cold binding buffer (PBS pH 6.0, 10 mM EDTA), and then diluted in binding buffer at a concentration of 10⁵ cells/ml. 100 μl of the cell dilution was dispensed into each 1.5-ml tube in such a manner that each tube contained 10⁴ cells, and 1 μl of HL161 antibody (1 mg/ml) was added to the dispensed cells. Next, the cells were incubated on ice. As control antibodies, 1 μl of each of mouse 1G3 antibody and human IgG antibody (Abcam, cat#. 409120), which bind to rat FcRn, was used. The 1G3 antibody was produced and purified from mouse hybridoma cells (ATCC CRL2434). The cells were recovered by centrifugation at 4° C. and 4000 rpm for 5 minutes, after which the cells were washed once with binding buffer and resuspended in 100 μl of binding buffer. As FITC-conjugated secondary antibody, 1 μl of anti-human IgG goat antibody (Invitrogen, cat#. A11013) was added to the cells. In the case of the experiment using anti-rat FcRn mouse antibody, the anti-mouse IgG goat antibody (Invitrogen, cat#. A11001) was incubated with the cells on ice for 1 hour, and then the cells were recovered by centrifugation at 4° C. and 4000 rpm for 5 minutes, washed once with binding buffer, resuspended in 400 μl of binding buffer and analyzed by FACS to examine the cross-reactivity of the HL161 antibodies with rat FcRn (see FIG. 4). An experiment at a pH of 7.4 was performed using binding buffer at a pH of 7.4 in the same manner as the experiment using binding buffer at a pH of 6.0. The degree of the binding of each antibody to rat FcRn was presented as relative MFI based on human IgG.

[4] = target: T1, human FcRn on HEK293 cells; test: FACS on hFcRn-overexpressing HEK293 cells at pH 6.0, Alexa488 anti-human goat antibody; MFI relative to hIgG1
Protocol: as §1

Relative MFI (Fold) [1]: 10.6 fold
Relative MFI(%) at 250nM [2]: 75.4%
Relative MFI(%) at 1000nM [3]: 51.8%
binding result (rat FcRn on Rat-2 cells): no binding
Relative MFI (Fold) [4]: 3.5 fold
B1: HL161-11H (antibody, V domains shown)
VH: QMQLVESGGGLVQPGRSLRLSCAASGFTFSSYAMHWVRQAPGKGLEWVAVISYDGSNKYYADSVKGRFTISRDNSKNTLYLQMNSLRSEDTAVYYCSRGSGGRDAFDVWGQGTMITVSS
VL: DIQMTQSPSTLSASVGDRVTITCRASQSISSRLAWYQQKPGKAPKLLIYKASSLETGVPSRFSGSGSGTEFTLTISSLQPDDFATYYCQQTNSFPLTFGGGTKVEIK
notes: Whole human IgG from pNATAB vectors
